From patent US20180133295A1 (AMAL THERAPEUTICS, published 2018) come the findings set out here.

In one test the target is T1, human TLR4 (human, UniProt O00206 24-839).
T1 construct: whole, on cells; also called hTLR4; Toll-like receptor 4
Description: HEK-hTLR4 cells, IL-8 ELISA; binding inferred from activation.

In the next test the target is T2, human TLR2 (human, UniProt O60603 21-784).
T2 construct: whole, on cells; Expressed on the HEK-Blue hTLR2 reporter cell line; also called hTLR2; Toll-like receptor 2
T2 sequence (O60603 21-784): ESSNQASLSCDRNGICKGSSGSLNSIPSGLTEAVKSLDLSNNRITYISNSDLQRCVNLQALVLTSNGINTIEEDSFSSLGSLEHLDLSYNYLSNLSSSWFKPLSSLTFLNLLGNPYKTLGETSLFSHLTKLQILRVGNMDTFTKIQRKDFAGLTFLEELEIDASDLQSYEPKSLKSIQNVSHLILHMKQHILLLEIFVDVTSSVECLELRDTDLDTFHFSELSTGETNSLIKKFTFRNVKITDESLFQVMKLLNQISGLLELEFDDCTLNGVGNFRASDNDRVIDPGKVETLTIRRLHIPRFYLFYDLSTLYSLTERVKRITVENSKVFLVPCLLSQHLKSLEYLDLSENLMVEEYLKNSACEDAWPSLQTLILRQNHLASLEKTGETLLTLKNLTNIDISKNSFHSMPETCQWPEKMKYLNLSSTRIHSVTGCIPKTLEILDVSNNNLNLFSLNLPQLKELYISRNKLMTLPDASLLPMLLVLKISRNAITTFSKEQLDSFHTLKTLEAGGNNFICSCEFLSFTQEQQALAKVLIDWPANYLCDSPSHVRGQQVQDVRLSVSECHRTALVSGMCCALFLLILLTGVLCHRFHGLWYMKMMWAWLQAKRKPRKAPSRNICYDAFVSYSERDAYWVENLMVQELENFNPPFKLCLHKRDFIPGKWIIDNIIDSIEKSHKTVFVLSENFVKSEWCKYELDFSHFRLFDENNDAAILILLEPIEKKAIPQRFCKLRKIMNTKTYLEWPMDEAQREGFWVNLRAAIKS
In words: HEK-Blue hTLR2 cells, NF-κB/AP1 reporter and IL-8 ELISA; binding inferred from activation.

T1 sequence (O00206 24-839): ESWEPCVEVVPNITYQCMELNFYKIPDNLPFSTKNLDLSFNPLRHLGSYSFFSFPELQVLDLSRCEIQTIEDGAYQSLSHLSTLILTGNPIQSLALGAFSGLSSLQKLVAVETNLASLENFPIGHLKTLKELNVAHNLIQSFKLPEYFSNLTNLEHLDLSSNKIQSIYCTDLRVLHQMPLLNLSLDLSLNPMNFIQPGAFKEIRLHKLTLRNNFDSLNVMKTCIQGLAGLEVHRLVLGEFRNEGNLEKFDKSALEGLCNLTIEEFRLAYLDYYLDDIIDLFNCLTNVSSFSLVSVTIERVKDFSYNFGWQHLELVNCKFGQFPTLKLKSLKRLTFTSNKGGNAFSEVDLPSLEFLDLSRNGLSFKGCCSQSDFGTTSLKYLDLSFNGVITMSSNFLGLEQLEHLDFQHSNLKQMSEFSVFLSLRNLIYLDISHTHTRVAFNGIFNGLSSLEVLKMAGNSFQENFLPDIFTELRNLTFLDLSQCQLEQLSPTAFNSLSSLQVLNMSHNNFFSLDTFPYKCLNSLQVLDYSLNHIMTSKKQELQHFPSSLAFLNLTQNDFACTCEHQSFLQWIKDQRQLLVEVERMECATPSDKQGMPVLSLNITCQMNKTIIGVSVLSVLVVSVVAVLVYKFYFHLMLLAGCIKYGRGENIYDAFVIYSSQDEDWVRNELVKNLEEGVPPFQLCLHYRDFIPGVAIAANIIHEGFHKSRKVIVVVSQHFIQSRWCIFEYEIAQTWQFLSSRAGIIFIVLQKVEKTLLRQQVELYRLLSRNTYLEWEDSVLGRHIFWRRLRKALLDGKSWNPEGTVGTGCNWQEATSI

B1: EDAZ13Mad5 (other)
chain: MHHHHHHNIDRPKGLAFTDVDVDSIKIAWESPQGQVSRYRVTYSSPEDGIRELFPAPDGEDDTAELQGLRPGSEYTVSVVALHDDMESQPLIGIQSTKRYKNRVASRKSRAKFKQLLQHYREVAAAKSSENDRLRLLLKESLKISQAVHAAHAEINEAGREVVGVGALKVPRNQDWLGVPRFAKFASFEAQGALANIAVDKANLDVEQLESIINFEKLTEWTGS
notes: Recombinant fusion protein; 25057 Da; also called fusion protein of TLR4 peptide agonist EDA, cell-penetrating peptide Z13 and MAD5 cargo
B1: the binding result in the test with human TLR4 is on record as “binds”.

B2: Z13Mad5Anaxa (other)
chain: MHHHHHHKRYKNRVASRKSRAKFKQLLQHYREVAAAKSSENDRLRLLLKESLKISQAVHAAHAEINEAGREVVGVGALKVPRNQDWLGVPRFAKFASFEAQGALANIAVDKANLDVEQLESIINFEKLTEWTGSSTVHEILCKLSLEGDHSTPPSAYGSVKPYTNFDAE
notes: Recombinant fusion protein; 18973 Da; also called fusion protein of cell-penetrating peptide Z13, MAD5 cargo and TLR peptide agonist Anaxa (C-terminal)
For B2, the binding result with human TLR2 and with human TLR4 was “binds” throughout.

B3: AnaxaZ13Mad5 (other)
chain: MHHHHHHSTVHEILCKLSLEGDHSTPPSAYGSVKPYTNFDAEKRYKNRVASRKSRAKFKQLLQHYREVAAAKSSENDRLRLLLKESLKISQAVHAAHAEINEAGREVVGVGALKVPRNQDWLGVPRFAKFASFEAQGALANIAVDKANLDVEQLESIINFEKLTEWTGS
notes: Recombinant fusion protein; 18973 Da; also called AnaxZ13Mad5
For the molecule B3, in the test with human TLR2, the binding result is “binds”.
